In patent US20210101998A1 (Pfizer, published 2021):
Where a chain is given by its changes, count along the chain named. Where two headings read alike, the source gives them in different places.

How the values were obtained:
humTFPI K1K2 [1] = molecular target: T1, humTFPI K1K2 (human); experiment: SPR, antibody ligand, TFPI analyte
T1 construct: Biotinylated on the AviTag for ELISA; also called Human TFPIα K1K2; humTFPI K1K2-aviHis10
Method: (§1) The flow cells were activated by injecting a 1:1 mixture of 400 mM 1-Ethyl-3-(3-dimethylaminopropyl) carbodiimide hydrochloride (EDC) and N-hydroxysuccinimide (NHS) for 7 minutes at a flow rate of 10 μl/minute. Anti-human IgG antibody was diluted to 25 μg/ml in 10 mM Sodium Acetate pH 5.0 and injected over all flow cells for 7 minutes at 10 ul/minute. All flow cells were blocked with 1 M Ethanolamine-HCL (ETH) for 7 minutes at 10 μl/minute. Final immobilization level of the capture antibody was approximately 10,000 resonance units (RU). The running buffer for immobilization and kinetics was 10 mM HEPES pH 7.4, 150 mM NaCl, 3 mM EDTA, 0.05% (v/v) Tween-20 (HBS-EP+). […] Flow cell 1 was used as a reference surface. […] At the end of each cycle, the entire anti-IgG surface was regenerated by a 60 second pulse of 3 M MgCl2. Kinetic assays were conducted at 25° C. at a collection rate of 10 Hz on a BIAcore T200 instrument (GE Healthcare). Rate constants and affinities were determined by fitting the data to a 1:1 model in BIAcore T200 Evaluation software version 1.0 (GE).

rabTFPI K1K2 [2] = molecular target: T2, rabTFPI K1K2 (rabbit, limits assumed); experiment: SPR, antibody ligand, TFPI analyte
T2 construct: also called Rabbit TFPI K1K2; rabbit TFPI
T2 chain: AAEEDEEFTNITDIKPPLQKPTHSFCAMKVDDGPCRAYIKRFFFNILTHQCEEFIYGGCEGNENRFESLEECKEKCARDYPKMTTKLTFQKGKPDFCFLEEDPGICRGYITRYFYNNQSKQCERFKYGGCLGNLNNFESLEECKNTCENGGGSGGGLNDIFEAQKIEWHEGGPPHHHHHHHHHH
Method: as §1

humTFPI K1K2 [3] = molecular target: T1, humTFPI K1K2; experiment: ELISA, biotinylated TFPI on streptavidin plate
rabTFPI K1K2 [4] = molecular target: T2, rabTFPI K1K2; experiment: ELISA, biotinylated TFPI on streptavidin plate
humTFPI K1K2 [5] = molecular target: T1, humTFPI K1K2; experiment: cell-based or functional assay
humTFPI K1K2 [6] = molecular target: T1, humTFPI K1K2; experiment: SPR, antibody ligand, TFPI analyte; remark: listed apart in the source
murTFPI K1K2 [7] = molecular target: T3, murTFPI K1K2 (mouse); experiment: SPR, antibody ligand, TFPI analyte;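 on koff: surface plasmon resonance on a BIAcore T200 at 25 °C, test antibody captured on immobilized anti-human IgG, TFPI K1K2 flowed as analyte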
T3 construct: also called Mouse TFPI K1K2; mouse TFPI
T3 chain: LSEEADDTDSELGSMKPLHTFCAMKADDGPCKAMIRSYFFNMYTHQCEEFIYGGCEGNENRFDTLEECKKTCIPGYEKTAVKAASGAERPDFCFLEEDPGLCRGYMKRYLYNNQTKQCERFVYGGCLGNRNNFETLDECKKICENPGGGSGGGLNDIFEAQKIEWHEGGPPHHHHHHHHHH

humTFPI K1K2 [8] = molecular target: T1, humTFPI K1K2; experiment: SPR, antibody ligand, TFPI analyte; remark: listed apart in the source
Method: as §1

humTFPI K1K2K3 = humTFPI K1K2K3 (human); experiment: cell-based or functional assay
rabTFPI K1K2 [9] = molecular target: T2, rabTFPI K1K2; experiment: SPR, summary table
Method: as §1

ratTFPI K1K2 [10] = molecular target: T4, ratTFPI K1K2 (rat); experiment: SPR, summary table
T4 chain: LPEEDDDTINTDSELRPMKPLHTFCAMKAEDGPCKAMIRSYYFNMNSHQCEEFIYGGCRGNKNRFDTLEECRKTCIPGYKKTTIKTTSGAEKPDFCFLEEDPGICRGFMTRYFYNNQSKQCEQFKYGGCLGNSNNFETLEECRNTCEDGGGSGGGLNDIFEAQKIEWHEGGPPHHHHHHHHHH
Method: as §1

humTFPI K1K2 [11] = molecular target: T1, humTFPI K1K2; experiment: cell-based or functional assay; remark: listed apart in the source
rabTFPI K1K2 [12] = molecular target: T2, rabTFPI K1K2; experiment: SPR, antibody ligand, TFPI analyte
Method: as §1

ratTFPI K1K2 [13] = molecular target: T4, ratTFPI K1K2; experiment: SPR, antibody ligand, TFPI analyte;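 further: surface plasmon resonance on a BIAcore T200 at 25 °C, test antibody captured on immobilized anti-human IgG, TFPI K1K2 flowed as analyte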
Method: as §1

cyno TFPI K2 = molecular target: T5, cyno TFPI K2 (cynomolgus monkey, UniProt Q28864 116-177 (rhesus entry), limits assumed); experiment: not told
T5 construct: K2 fragment cut out of cynTFPI K1K2 with human neutrophil elastase, residual AviTag trimmed with AspN; also called Cynomolgus TFPI K2 domain; cyno K2
Method: Based on buried surface area (BSA) and percent BSA (% BSA) for residues at the Fab TFPI K1K2 interface, the epitope and paratope of the complex were determined.

cyno K1 = molecular target: T6, cyno K1 (cynomolgus monkey, UniProt Q28864 29-115 (rhesus entry), limits assumed); experiment: not told
T6 construct: also called K1 domain alone
T6 chain: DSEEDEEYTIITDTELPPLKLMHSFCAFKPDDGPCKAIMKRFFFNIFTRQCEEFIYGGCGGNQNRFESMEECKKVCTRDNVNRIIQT

humTFPI K1K2 [14] = molecular target: T1, humTFPI K1K2; experiment: SPR, antibody ligand, TFPI analyte; remark: listed apart in the source
Method: as §1

murTFPI K1K2 [15] = molecular target: T3, murTFPI K1K2; experiment: SPR, antibody ligand, TFPI analyte;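 on koff: surface plasmon resonance on a BIAcore T200 at 25 °C, test antibody captured on immobilized anti-human IgG, TFPI K1K2 flowed as analyte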
Method: as §1

cynTFPI K1K2 [16] = molecular target: T7, cynTFPI K1K2 (cynomolgus monkey); experiment: SPR, antibody ligand, TFPI analyte;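 further: surface plasmon resonance on a BIAcore T200 at 25 °C, test antibody captured on immobilized anti-human IgG, TFPI K1K2 flowed as analyte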
T7 construct: also called Cynomolgus Monkey TFPI K1K2; cyno TFPI K1K2
Method: as §1

humTFPI K1K2 [17] = molecular target: T1, humTFPI K1K2; experiment: SPR, summary table
Method: as §1

murTFPI K1K2 [18] = molecular target: T3, murTFPI K1K2; experiment: SPR, summary table
Method: as §1

cynTFPI K1K2 [19] = molecular target: T7, cynTFPI K1K2; experiment: SPR, summary table
Method: as §1

B1: mu-hu 4D8 chimera (antibody, human IgG1, kappa)
light: DIVMTQSHKFMSTSVGDRVSITCKASQDVHTAVAWYQQKPGQSPRLLIYWASTRHTGVPDRFTGCGSGTDYTLTISSVQAEDLALYYCQQHYTTPYTFGGGTKLEMKRTVAAPSVFIFPPSDEQLKSGTASVVCLLNNFYPREAKVQWKVDNALQSGNSQESVTEQDSKDSTYSLSSTLTLSKADYEKHKVYACEVTHQGLSSPVTKSFNRGEC
heavy: EVLLQQSGPELVKPGASVKIPCKASGYTFTDYNLDWVKQSHGKSLEWIGDINPINGATLYNQKFKGKATLTVDQSSSTAYMELRSLTSEDTAVYYCSIYYGDYDAMDYWGQGASVTVSSASTKGPSVFPLAPSSKSTSGGTAALGCLVKDYFPEPVTVSWNSGALTSGVHTFPAVLQSSGLYSLSSVVTVPSSSLGTQTYICNVNHKPSNTKVDKKVEPKSCDKTHTCPPCPAPEAAGAPSVFLFPPKPKDTLMISRTPEVTCVVVDVSHEDPEVKFNWYVDGVEVHNAKTKPREEQYNSTYRVVSVLTVLHQDWLNGKEYKCKVSNKALPAPIEKTISKAKGQPREPQVYTLPPSREEMTKNQVSLTCLVKGFYPSDIAVEWESNGQPENNYKTTPPVLDSDGSFFLYSKLTVDKSRWQQGNVFSCSVMHEALHNHYTQKSLSLSPG
notes: Mouse variable regions on human IgG1 3M and human kappa; also called hu-mu 4D8 chimera; mouse-human chimeric antibody 4D8
What does the source list for B1?
Kd (humTFPI K1K2 [1]): 1.19 nM; koff (humTFPI K1K2 [1]): 0.00114 s⁻¹; kon (humTFPI K1K2 [1]): 958000 M⁻¹ s⁻¹; Kd (rabTFPI K1K2 [2]): 0.63 nM; koff (rabTFPI K1K2 [2]): 0.00126 s⁻¹; kon (rabTFPI K1K2 [2]): 2.01e+06 M⁻¹ s⁻¹; EC50 (humTFPI K1K2 [3]): 0.0577 nM; EC50 (rabTFPI K1K2 [4]): 0.068 nM

B2: TFPI-23 (antibody, human IgG1, lambda)
light: QSVLTQPPSVSGAPGQRVTISCTGSSSNIGAGYDVHWYQQLPGTAPKLLIYGNSNRPSGVPDRFSGSKSGTSASLAITGLQAEDEADYYCQSYDSSLSGSGVFGGGTKLTVLGQPKAAPSVTLFPPSSEELQANKATLVCLISDFYPGAVTVAWKADSSPVKAGVETTTPSKQSNNKYAASSYLSLTPEQWKSHRSYSCQVTHEGSTVEKTVAPTECS
heavy: not shown
notes: Human IgG1-3M from phage display; also called mAb-TFPI-23; clone 23
What does the source list for B2?
FXa EC50 (humTFPI K1K2 [5]): 46 nM; FXa-FVIIa EC50 (humTFPI K1K2 [5]): 32.2 nM; Kd (humTFPI K1K2 [6]): 9.89 nM; Kd (murTFPI K1K2 [7]): 1.46 nM; Kd (humTFPI K1K2 [8]): 9.89 nM

B3: TFPI-106 (antibody, human IgG1, lambda)
light: B2 light
heavy: not shown
For B3, which “EC50, neutralization of FVIIa/TF/FXa inhibition” value (humTFPI K1K2K3) is on record?
The value was 8.47 nM.

And the Kd (rabTFPI K1K2 [9])?
The Kd was 4.25 nM.

What about the Kd (ratTFPI K1K2 [10]) of the same binder?
The Kd was 1.57 nM.

What about the “FVIIa/TF/Xa EC50” value (humTFPI K1K2 [11]) of the same binder?
Its value is 4.3 nM.

And the “Xa Inhibition Assay EC50” value (humTFPI K1K2 [11])?
Its value is 18.1 nM.

What about the Kd (rabTFPI K1K2 [12]) of the same binder?
The Kd was 4.25 nM.

And the Kd (ratTFPI K1K2 [13])?
Its Kd is 1.57 nM.

B4: 2A8 (antibody, human IgG1, lambda, V domains shown)
VH: QVQLVESGGGLVQPGGSLRLSCAASGFTFRSYGMSWVRQAPGKGLEWVSSIRGSSSSTYYADSVKGRFTISRDNSKNTLYLQMNSLRAEDTAVYYCARKYRYWFDYWGQGTLVTVSS
VL: DIELTQPPSVSVAPGQTARISCSGDNLRNYYAHWYQQKPGQAPVVVIYYDNNRPSGIPERFSGSNSGNTATLTISGTQAEDEADYYCQSWDDGVPVFGGGTKLTVLG
Which results are given for B4?
binding result (cyno TFPI K2): no binding; binding result (cyno K1): no binding; Kd (humTFPI K1K2 [14]): 10.6 nM; koff (humTFPI K1K2 [14]): 0.00377 s⁻¹; kon (humTFPI K1K2 [14]): 355000 M⁻¹ s⁻¹; Kd (murTFPI K1K2 [15]): 33.6 nM; koff (murTFPI K1K2 [15]): 0.00632 s⁻¹; kon (murTFPI K1K2 [15]): 191000 M⁻¹ s⁻¹; Kd (cynTFPI K1K2 [16]): 13.2 nM; koff (cynTFPI K1K2 [16]): 0.00306 s⁻¹; kon (cynTFPI K1K2 [16]): 237000 M⁻¹ s⁻¹; Kd (rabTFPI K1K2 [12]): 1.69 nM; koff (rabTFPI K1K2 [12]): 0.00123 s⁻¹; kon (rabTFPI K1K2 [12]): 730000 M⁻¹ s⁻¹

B5: 2A8-200 (antibody, human IgG1, lambda, V domains shown)
VH: B4 VH with S35D, S55R, K99L
VL: B4 VL with Y48F, N51V, D91W
notes: also called Anti-TFPI-2A8-200
What does the source list for B5?
binding result (cyno TFPI K2): no binding; binding result (cyno K1): no binding; Kd (humTFPI K1K2 [17]): 0.327 nM; Kd (murTFPI K1K2 [18]): 0.455 nM; Kd (cynTFPI K1K2 [19]): 0.637 nM; Kd (rabTFPI K1K2 [9]): 0.145 nM; FVIIa/TF/Xa EC50 (humTFPI K1K2 [11]): 4.84 nM; Xa Inhibition Assay EC50 (humTFPI K1K2 [11]): 2.42 nM; Kd (humTFPI K1K2 [14]): 0.327 nM; koff (humTFPI K1K2 [14]): 0.000381 s⁻¹; kon (humTFPI K1K2 [14]): 1.16e+06 M⁻¹ s⁻¹; Kd (murTFPI K1K2 [15]): 0.455 nM; koff (murTFPI K1K2 [15]): 0.00117 s⁻¹; kon (murTFPI K1K2 [15]): 2.54e+06 M⁻¹ s⁻¹; Kd (cynTFPI K1K2 [16]): 0.637 nM; koff (cynTFPI K1K2 [16]): 0.000809 s⁻¹; kon (cynTFPI K1K2 [16]): 1.25e+06 M⁻¹ s⁻¹; Kd (rabTFPI K1K2 [12]): 0.145 nM; koff (rabTFPI K1K2 [12]): 0.000277 s⁻¹; kon (rabTFPI K1K2 [12]): 1.92e+06 M⁻¹ s⁻¹
